Data on two substances can be found in PMC7753581 (The FASEB Journal, 2020).

By IC50 is commonly meant the midpoint of a concentration-inhibition curve. High values mean weaker potency, low ones greater potency.

For assay [1], the target named is HLA I molecule A*02:01, purified. Nature of the assay: radioligand binding.
Assay [2] has as its system CD8 T cells of peptide‐expanded PBMCs from A*02:01‐donors. Nature of the assay: DimerX staining. To be noted: Figure 5A; peptide‐stimulated PBMCs from A*02:01‐subject #14; representative experiment. It counts as cell-based, human.

For the substance HRVC_(1791-1806) peptide, the IC50 in assay [1] worked out at 91 nM.
As to NTSAGFPYV [HRVC1798‐1806], in assay [2], the “percentage of CD8 T cells recognizing DimerX‐peptides within the total of gated‐CD8 T cells” value was 1.12%.
